Source: ChEMBL document CHEMBL2074291, “Species differences in the transport activity for organic anions across the bile canalicular membrane” (J Pharmacol Exp Ther, 1999)

Substrate: N[C@@H](CCC(=O)N[C@H](CSc1ccc([N+](=O)[O-])cc1[N+](=O)[O-])C(=O)NCC(=O)O)C(=O)O
Experiment: TP_TRANSPORTER: uptake in bile canalicular membrane vesicles from ddY mouse
Assay type: functional, cell membranes, Bile canalicular membrane vesicle

B1: ATP-binding cassette sub-family C member 2 (Mus musculus) (protein)
chain: MDEFCNSTFWNLSLLKSPEADLPLCFEQTVLVWIPLGFLWLLAPWQLYRIYRSRTKRFAITKFYLAKQVFVVCLLILAAIDLSLALTEDTGQATIPPVKYTNPILYLCTWLLVLVIQHCRQCCIQKNSWFLSMFWILSLLCGIFQFQTLIRALLQDSKSNMTYSCLFFVSYGFQIVILILSAFSESSDSTHAPSATASFLSSVTFSWYDSTVLKGYKHPLTIEDVWDIEENLKAKSLTSKFKTIMTKDLQKARQALQRRLKKSQQSPEGTSHGLTKKQSQSQDVLVLEDSKKKKKKSEATKDFPKSWLVKALFKTFYVVILKSFILKLAHDILLFLNPQLLKFLIGFVKDPDSYPWVGYIYAILMFSVTLIQSFFLQCYFQFCFVLGMTVRTTIIASVYKKALTLSNLARRQYTIGETVNLMSVDSQKLMDVTNYIHLLWSSVLQIALSIFFLWRELGPSILAGVGLMVLLVPVNGVLATKIRKIQVQNMKNKDKRLKIMNEILSGIKILKYFAWEPSFKEQVNSIRKKELRNLLRFSQLQTILIFILHLTPTLVSVITFSVYVLVDSQNVLNAEKAFTSITLFNILRFPLAMLPMVISSVIQASVSVDRLEQYLGSDDLDLSAIRHVCHFDKAVQFSEASFTWDRDLEATIQDVNLDIKPGQLVAVVGTVGSGKSSLISAMLGEMENVHGHITIKGSIAYVPQQAWIQNGTIKDNILFGSEYDEKKYQRVIEACALLPDLEMLPGGDMAEIGEKGINLSGGQKHRVSLARATYQDADIYILDDPLSAVDTHVGKHIFNKVVGPNGLLSGKTRILVTHGIHFLPQVDEIVVLGKGTILEKGSYSDLMDKKGVFAKNWKTFMKHSGPEGEATVDNDSEEEDGDCGLIPTVEEIPDDAASLTMRRENSLRRTLSRSSRSGSRRGKSLKSSLKIKSVNALNKKEEVVKGQKLIKKEFVETGKVKFSIYLKYLQAVGWWSLLFIVIFYVLNYVAFIGTNLWLSAWTSDSEKQNGTDNSPSQRDMRIGVFGALGIAQGIFLLSSSLWSIYACRNASKTLHRQLLTNILRAPMSFFDTTPTGRIVNRFAGDISTVDDTLPQTLRSWLLCFFGIVSTLVMICMATPIFIIIIIPLSILYVSVQVFYVATSRQLRRLDSVTKSPIYSHFSETVSGLPVIRAFEHQQRFLANSEKQIDTNQKCVFSWITSNRWLAIRLELVGNLIVFCSALLLVIYKNSLTGDTVGFVLSNALNITQTLNWLVRMTSEVETNIVAVERINEYINVDNEAPWVTDKKPPADWPKKGEIQFNNYQVRYRPELDLVLKGITCNIKSTEKVGVVGRTGAGKSSLTNCLFRILESAGGQIIIDGIDIASIGLHDLRGRLTIIPQDPILFSGNLRMNLDPFNKYSDEEIWRALELAHLKSFVAGLQLGLLHEVTEGGDNLSIGQRQLLCLGRAVLRKSKILVLDEATAAVDLETDSLIQTTIRNEFSQCTVITIAHRLHTIMDSDKIMVLDSGKIVEYGSPEELLSNMGPFYLMAKEAGIESVNHTEL
Km: 25.5 µM
